Test results: a protein production outcome set (Wang et al. 2014)

Experiment: label from the status in PepcDB records
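Further: failed if final PepcDB status was selected cloned or expressed and not failed if soluble or beyond.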

Sequence | protein production
MRMKHLTVAALTLLLSVSCSQRQEDYPFRNPDLPIDERIDDLLKRLTAEEKIGQMMNTTPAIERLGIPEYDWWNEALHGVARAGKATVFPQAIAMAATFDDDALYETFTMVSDEARAKYHQYQKNKEYDRYKGLTFWTPNINIFRDPRWGRGMETYGEDPYLTERMGVAVVKGLQGDDPKYFKTHACAKHYAVHSGPEWNRHEFDVTVTPRDLWQTYLPAFEALVKKGNVQEVMCAYNRYQGKPCCSSDKLLIDILRNSWGYENIILSDCGAINDFWQRDERTPRHETHPDAESASADAVLNGTDLECGNSYKALIKALKEGKISENDLDVSLRRLLKGRFELGMFDPDERVPYAQIPYNVVESPEHVAQALEMAHKSMVLLKNKNNTLPLSKTIRKIAVVGPNAADSTMLWANYNGFPTHTVTILEGIRNKVPDTEVIYELGCNHAADFVIQDLGNHITSPAGQGFASEFYNNTEFKGEAVYKGLASQLHYTTGGNTQFAPNVNLTNFTARFTGEFEAPETEQVEIKLSGNDAFRLFIGDEKVAEVWENEYGAEKTYMLNAEKGKKYPVKIEYMQRTGSADLNFQIGTRRPVDYAATAAKVKDADVIVYVGGISPRLEGEEMPVNVEGFKKGDRTNIEIPKVQQEMVKALKATGKPVVYVLCTGSALALNWEDANIDAILNAWYGGQEAGTAVADILFGDYNPSGRLPVTFYKSIDQLPDFEDYSMKGRTYRYMTETPLYPFGYGLSYTNFAYRNAKLSSGKITKDQSVTLTFDIANTGKMDGDEVAQIYIKNPNDPEGPIKALKAFLRVHVKAGDSQEVNIELTPEAFHSFNDNTQTMEVRPGKYQILYGGSSDEKALERLELTIE | failed
MRMKRFLTIVQILLVVIIIIFGYKIVQTYIEDKQERANYEKLQQKFQMLMSKHQEHVRPQFESLEKINKDIVGWIKLSGTSLNYPVLQGKTNHDYLNLDFEREHRRKGSIFMDFRNELKNLNHNTILYGHHVGDNTMFDVLEDYLKQSFYEKHKIIEFDNKYGKYQLQVFSAYKTTTKDNYIRTDFENDQDYQQFLDETKRKSVINSDVNVTVKDKIMTLSTCEDAYSETTKRIVVVAKIIKVS | not failed
MRMQRQGCVQAQIAGQSGMLTYWDNRRDMPMIASHRWTALFVLVILMPLPAFAGTPEGGYRQPPEPLLSVMRAPLNPSPRPDPTGRTLLLVQRTQYPPIARVAEPYLKLAGVRVEPRTHSRHDMSNGYGIRSCLEGFSLVDIASGKQTAVSLPAGACPALPVWSPDGRRFAFNNTAADHVELWVGDVATGQVRKIDGVQLNPVLGGEIQWLGGSSTLLLKTVPQDLGPAPRKAAVPPGPEVKETIQGKGESSTYEARDTLSSPQDEALFTYYATAQLLTVDAATGSQRKLGTPAVYSNVDGAPDGRHVLVERLKPPYSYVTTYARFAHDVAVLDLETGNERVLANLPVADRVPVQGVPTGPRAYAWRANQPATLVWAEALDGGDWKTSVPARDTLMTLAAPFTAKPRALARVQQRYAGLSWFAEGGQALLDEYDENRHWRRTTLVDADRPGAGERVLFDLSTDDLYADPGLPEMRVLANGQAVLREAQGALFLSGQGASPAGDRPFLDRYTLATGKSQRLFRSDAHVDEVFFGFAGDETSRLLTWHQSLTDPPNVYVRTLGEPLPAPAAGEAAFASTATPVTHFADPTPLVRQIKKRLVSYKRKDGVDLSFTLYTPPGYKEGTRVPAILYAYPLDYADPSKAGQVSGASERDFTRLNYYQLLLLAGYAIIDDAAFPIVGDPKTAYDTYLQQLVDDATAAVDKAVELGVVDRQRIGVTGHSHGALMTANLLAHTDLFRAGAATSGSYNKTLTPFGFQSERRSFWKAPDVYAQASAFFHADKINEPLLIVHGMDDANPGTETTQAPRLFQAIRGNGGTARLVLLPFEPHWYSARESNEDLVAEMLEWFDRYVKNAPPRDAQHANDVR | failed
MRMVAHRFLRPQEAHMQVLVRDNNVDQALRILKKKLQREGVFREMRLREAFEKPSIKKAREKAEAIGRQRKLARKQMQREGLLPTKPRKDKLEHHHHHH | failed
MRNKDLEPHSFELWLNAAKTNLDKYEMALIITATLGLRRGEVMGLRNESIKISHDQINDADVAQISIDMQRNTNELNGGPLKTKSSYRTIWAFGKTVDHLKYAMITADNLRQRNNIQAEKHWLWLNNDGNPLHPTHLNRLMRRVSNRSGVEVYPHLLRHYFATQAIAANKPQIDVMHYLGHKNLQMTADYTRSTKAASLNVFNSIDKFLLEHHHHHH | failed
MRNKNMSTIYQTSATASAGRNGVVSTEDKLLELNLSYPKEMGGSGTATNPEQLFAVGYAACFSNAILHVAREAKVALKEAPVTATVGIGPNGQGGFALSVALAAHIALEDEQARQLVTVAHQVCPYSNAVRGNIDVQVSVNGLAL | not failed
MRNLKELKWSDLKTGIFFLLGLGFAAYLGLVIGKNTSIFTGVTTIKVMTRDVNGLAENNFVSVAGKKIGTVSKLDFSTQNDSLFVVAELKLQNEYANLVTKDSKASIRSLGVLGDKYVDIKAGTGKPVKEGDFIQLVPEDGLSALTDNAKSTIEKLNTLLDKLNNGDGPAGRLISDKQMGEDLQKTVMNLRKSSDELTRVSAELHNGKGLLPKLINDKSLADNTEQTIVNLKNAAAETETLMKQLNEGKGTLGKLNSDPALYNNLSKTLISLDTLLIDLKKRPNRYVRFTLF | failed
MRNLKLRYCKELNAVAHPQHLLLQPELNGGASDIYFVVADNKIYAVQESGDVRLKVIADLPDIVGVEFLQLDNAICVASGAGEVILVDPQTGATSEGTFCDVGIESMAWSPNQEVVAFVTRTHNVVLMTSTFDVIAEQPLDAELDPDQQFVNVGWGKKETQFHGSEGKQAAKQKESDSTFIRDEQELNQDVSISWRGDGEFFVVSYVAAQLGRTFKVYDSEGKLNHTAEKSANLKDSVVWRPTGNWIAVPQQFPNKSTIALFEKNGLRHRELVLPFDLQEEPVVQLRWSEDSDILAIRTCAKEEQRVYLYTIGNYHWYLKQVLIFEQADPLALLHWDTRCGAEHTLHVLKESGKHLVYRWAFAVDRNNSIVGVIDGKRLLLTDFDEAIVPPPMSKIVLKFETYINAFISHGTSLWVYTCDRKIYLNEHIHTLGKELQKPIMLMPDAELSGLHLANLTHFSPHYLLATHSSAGSTRLLLLSYKDNDNKPGEWFYRVHSSVRINGLVNAVAVAPYAMNEFYVQTVNNGHTYEVSLKADKTLKVERSYVQLHEPADQIDWVIVKGCIWDGYTGALVTLRNQHLLHIDGYRIGEDVTSFCVVTNYLVYTQLNAMHFVQLDDRRQVASRNIERGAKIVTAVARKARVVLQLPRGNLEAICPRVLVLELVGDLLERGKYQKAIEMSRKQRINLNIIFDHDVKRFVSSVGAFLNDINEPQWLCLFLSELQNEDFTKGMYSSNYDASKQTYPSDYRVDQKVEYVCRLLEQQMNRFVSRFRLPLITAYVKLGCLEMALQVIWKEQQEDASLADQLLQHLLYLVDVNDLYNVALGTYDFGLVLFVAQKSQKDPKEFLPYLNDLKALPIDYRKFRIDDHLKRYTSALSHLAACGEQHYEEALEYIRKHGLYTDGLAFYREHIEFQKNIYVAYADHLRAIAKLDNASLMYERGGQLQQALLSAKHTLDWQRVLVLAKKLSEPLDQVAQSLVGPLQQQGRHMEAYELVKEHCQDRKRQFDVLLEGHLYSRAIYEAGLEDDDVSEKIAPALLAYGVQLESSLQADLQLFLDYKQRLLDIRRNQAKSGEGYIDTDVNLKEVDLLSDTTSLHSSQYSGTSRRTGKTFRSSKNRRKHERKLFSLKPGNPFEDIALIDALHNHVTKIAQQQQPVRDTCKALLQLANAADADPLAAALQREFKTLLQAVDAALDEIWTPELRGNGLMADHLTGPNVDYLALQKEQRYALLSPLKRFKPQLIMMDWQHEILQ | failed
MRNLSRRIQSHQIRLRPPPFGAKRPVRRSESTSPPPRRRLIVGKRNRSAQVQYSMSHGLTHLSFWPLLFATLALTHVTIVSVTIFLHRHQAHRALSLHPLASHFFRFWLWLTTATVTKEWVSIHRKHHARCETPDDPHSPQCLGIFTVLLRGWMLYRKEARNTATLAQFGNGTPDDWLERKLYSRFPDLGITLMLALNLLLFGIGGLGVWAVQMLWIPFWAAGVVNGLGHHLGYRNFETPDASTNLWPIGFIIGGEELHNNHHAYPASAKFSSRRWEIDIGWLYIRLMTLLKLAKIRNMPPKTIIHTAEPSVDMDTVKAVLRNRAHVLSLYGRRVIVPVLRSEQAKSPKAGRRLLRQTRPLLLREYIKADPAAWHNFSRMLEDSQTLATIFQFKQQLKAVWTDSFTSHEERLERLRAWCLQAKQSDLPWLQHFADTLSGYRLQPAH | failed
MRNPFERMPTVLTADELIDKAFRRAEKAASSFKPRGNKVKKARLREELRVRTVSNVVRDNLRKVLERTPGLSTLPKFYQELVDVLVDRDTFHKAMAGIDWAIRIIRELEERYVERIRYSNDPNEIAELRRQFYGRVASVLRDIDDRLRYLNKAREVLKDLPVVDLEIPTVVIAGHPNVGKSTLLKALTTAKPEIASYPFTTRGINVGQFEDGYFRYQIIDTPGLLDRPISERNEIEKQAILALRYLGNLIIYIFDPSEHCGFPLEEQIHLFEEVHGEFKDLPFLVVINKIDVADEENIKRLEKFVKEKGLNPIKISALKGTGIDLVKEEIIKTLRPLAEKVAREKIERELRRYRSYLLEHHHHHH | failed
MRNTDDYIIFYHLVEQGSFSSAARHMELTKSVVSKRIAKLEQELGVQLLYRTTRTLTLTEAGQSFFVHAKAVYKAVATAEESIVGLGKNLSGNIKITVPTISGELILPGVISEFNDKYPDINIDMELDNRFVDIVNERFDLAIRTGMLPDSSLIARKLVDANWVVCASPKYLAKHGIPKQPIELTKHNCLVYSYQETGAREWAFKAGDKMYQVTVDGNLCTNNSSALRNVALLGQGVIYVPRVLVYEDLKQGSLIQLFKEETAKCLGIYAVYPYTRQQPEKIKIFIDHLYNSFQSQNHRF | failed
MRNTILFGVSMILLANLCFGIMSAFVKITADYFSPMENVFYRSITMTLLLLLIYPFKPYRLKSYKQGGFKKLAFRVVVGGLAMLAFFYNIEKISLATATAFSQCAPIYTVLLSPLLLKEKLKRSTLISACIGIVGVVLISDPSVENVGPVEIFMGILSGIFVSLAYITLRDLREYYDKQAVILAFAFGMSLLGLVGMFIDIPFLSTGIHVPRKEDILWISLIGISGTLGQYFLTYAYMNAPAGIIAPIEYTRIVWGLLFGLYLGDTFLDLKSSLGVALILCSGLLIALPALLKELKKI | failed
MRPGSVKRLYGVNTVQYAPCFMRDHRRDGIPHGNLPLELDAFVGRGAQLAELARTLDSARLVTLTGSGGVGKSRLAARAAARRAPRGGVWRVQLAPVRDEEFVDYAVVEALGLTDHTTRLPRETLLAHLAERELLLLLDGVEHLVDACAALVTELLGRAPGLTVLAVGRRPLGVAGERLVPLAPLGTEEAVELLTVRAGQRSVARDHDADPDADQREMRELCRRLDGIPLAIELAAGRLDALSPGQMLRRLDDRFRLLTGGDRTALPRHRTLRTAIGWSHELCTPPERLLWARLSVFAGPFDLEAAEYVCSGDGMPADDVLDVLCALLSQSVLTREESPAGVRYRMLDTVRAYGADWLAATGDADRLRRRHRDWYVGLATWCELEWFSPRQGEVAARVDAELPNLRSALEHCLDEPDGAHLGQYLAGALWFHWVGCGRLSEGRHWLEQAVRLDAEPTAGEQSRLKALWVLAYVAILQGDTVPALAALQECREEAERSANPTAAAYAEHRTGCLALVTDDLPRAETLLRSALHRYREIGELNSNVLMGQVELAMARAFQGDLPDAVRLCEDVRQVCEDHGERWARGYALYVLAYAAWSDGEPVRARELLADCLGSAHRFRDQLGSVLAVELLALVTVAEGDAAEAAVLQGAAGRMWPSVGLPLFGSAHYNAPHELCEAAAREQLGDERYEECVRHGARLGRREAVARALRRPGARASLPAPRPTAVRRAPAGARTAKPAASPTRKGGETAG | failed
MRPKANQNHKLKVLLVFLLATLILIFIVRSTLTSSQEHQTPQETRSTRCSGACNKLPRSLAQALIHYSTSVITPQQTLKEIAVSSRVLGKKSPCNFLVFGLGHDSLMWSSLNYGGRTVFLEEDEAWIKQIKRRFPMLESYHVTYDSKVNQADNLIEVGKGPECTAIGDPRYSMCQLALKGLPAEIYETGWDLIMVDAPTGYYDEAPGRMTAIYTAGMMARNRKQGGETDVFVHDVNREIEDKFSKAFLCEGYMKKQEGRLRHFIIPSYRDGSESESNRPFCP | failed
